Assay results published in patent US20260028391A1.

Target: fusion glycoprotein of the RSV used in the neutralization assay of Example 1 (respiratory syncytial virus (strain not stated))
Assay: cell-based or functional assay

Binder	RSV Neutralization - IC50 [ng/mL]
MPK173 (antibody, V domains shown) VH: QVQLVQSGAEVRKPGASVKVSCRASGYTFSNFGITWVRQAPGQGLEWMGWISAYNGNTKSAQKFQDRVTMTTDTTTSTAYMELRSLRSDDTAVYYCARDTPSSDGAALLDYWGQGTLVTVSS VL: DIVMTQTPLSLPVTLGQPASISCRSSQSLVYSDGNTYLSWFQQRPGQSPRRLIYKVSNRDSGVPDRFSGSGSGTYFTLKINRVEAEDVGVYYCMQSKYWLTFGQGTKVEIK	10.2
MPK163 (antibody, V domains shown) VH: EVQLVQSGAEVKKPGESLKMSCKTSGYSFRSYWIAWVRQRPGKGLEWMGIIWPGDSDVRYGPSFQGQVTISADRSTNTAYLQWSSLKASDTAIYWCARQNYDFWSGHSLGTGADYYYGMDVWGQGTTVTVSS VL: SSELTQPPSASGTPGQRVTISCSGSSSNIGRNIVHWYQHVPGTAPKLLIYNNDERPSGVPDRFSGSKSGTSASLAISGLQSEDEADYYCTVWDDSLNGGVFGGGTKVTVL	1.4
MPK161-v1 (antibody, V domains shown) VH: EVQLVQSGVEAKKPGESLKISCRASGYSFVNFWIGWVRQVPGKGLEWMGFIYPFDSDTKYGPSFEGHVIISADKSTNTAYLEWRSLRASDSAMYYCARFTFGIALVAGDVTGGGQAFEVWGQGTLVSVSS VL: AIWMTQSPSTLSASVGDRVTVTCRASLSIGTWLAWYQHKPGKAPKFLIYKASSLESGVPSRFSGSGSGTEFTLTISSLQPDDFATYYCQQYDSYPFTFGGGTKVEIK	2.8
MPK161-v2 (antibody, V domains shown) VH: EVQLVQSGVEAKKPGESLKISCRASGYSFVNFWIGWVRQVPGKGLEWMGFIYPFDSDTKYGPSFEGHVIISADKSTNTAYLEWRSLRASDSAMYYCARFTFGIALVAGDVTGGGQAFEVWGQGTLVSVSS VL: EIVMMQSPATLSVSPGDRATLSCRASQSVAGNLAWYQQRPGQAPRLLIYAASTRATGVPARFSGSGSETEFTLTISSLQSEDFAVYYCHHYSNWPQAFGQGTRLDIK	1.1
MPK170 (antibody, V domains shown) VH: QVQLVQSGAEVKKPGESLKISCKGSGYSFINYWIGWVRQMPGKGLEWMGIIYPFDSDTKYSPSFQGHVTISADKSINTAYVQWSSLKASDTAIYYCARFTFGIAVSTDDVSGEGQAFDLWGQGTRVTVSS VL: EIVMMQSPATLSVSPGERATLSCRASQSVAGNLAWYQQRPGQAPRLLIYAGSARATGVPARFSGSGSETEFTLTISSLQSEDFAVYYCHHYSNWPQAFGQGTRLDIK	1.1
MPK165 (antibody, V domains shown) VH: EVQLVQSGAEVKKPGESLKISCRASGYSFNNYWVGWVRQVPGKGLEWMGFIYPFDSDTKYSPSFEGHVTISADKSIDTAYLQWSSLRSSDTAIYYCARFTFGIALVAGDVTGGGQAFEVWGQGTLVTVSS VL: EIVMTQSPATLSVSPGERATLSCRASQSVAGKLAWYQQRPGQAPRLIIYAASTRAAGVPARFSGSGSETEFTLTISSLQSEDFAVYYCHHYSNWPQAFGQGTRLDIK	1
MPK171-v2 (antibody, V domains shown) VH: QVQLVQSGAEVKKPGESLKISCKGSGYSFINYWIGWVRQMPGKGLEWMGIIYPFDSDTKYSPSFQGHVTISADKSINTAYVQWSSLKASDTAMYYCARFTFGIAVVTDDVSGEGHAFDIWGQGTMVTVSS VL: QSVLTQSPATLSVSPGERATLSCRASQSVAGNLAWYQQRPGQAPRLLIYGASTRATGVPARFSGSGSETEFTLTISSLQSEDFAVYYCQQYSNWPQAFGQGTRLDIK	1
MPK178 (antibody, V domains shown) VH: EVQLVQSGAEVKKPGESLKISCRASGYSFVNYWIGWVRQVPGKGLEWMGFIYPFDSDTQYSPSFQGHVTISADKSINTAYLQWSSLRASDTAIYYCARFTFGIALVAGDVTGGGQAFEVWGQGTLVSVSS VL: DIVMTQSPVTLSVSPGERATLSCRASQSVAGNLAWYQQRPGQAPRLLIYAASTRATGVPARFSGSGSETEFTLTISSLQSEDFAVYYCHHYSNWPQAFGQGTRLDIK	1
